Experiments:
[1] = system: POTH1; experiment: Yeast two-hybrid interaction with POTH1; type: binding, Solanum tuberosum; conditions: nutritional selection and lacZ activation, yeast AH109
Excerpt: The Matchmaker two-hybrid system (Clontech, Calif.) was used for the yeast two-hybrid screen. Yeast transformation and plasmid rescue into DH5-α E. coli cells were according to the manufacturer's instructions. Full-length POTH1 was cloned into the pBridge (Clontech, Calif.) vector and used as bait to screen the potato (S. tuberosum ‘Desireé’) stolon cDNA library in pAD-GAL4-2.1 (Stratagene, Calif.). Positive interactions were confirmed by cotransforming yeast strain AH109 with each purified pAD plasmid and pBridge: POTH1 and plating on -leucine/-tryptophan (transformation control) and -leucine/-tryptophan/-histidine/-adenine (selection) nutrient medium. Induction of the AH109 reporter gene, lacZ, was measured with a yeast β-galactosidase assay kit (Pierce Chemicals). β-galactosidase activity (FIG. 9B) was determined from a known density of yeast cells and calculated as 1000×OD420/time of color reaction (minutes)×volume of yeast culture (ml)×OD600.
The StBEL-05 deletion constructs were amplified by PCR, then cloned into the vector, pGAD, in-frame with the GAL4 activation domain. POTH1 deletion constructs were amplified by PCR, and cloned into pBridge (Clontech) in-frame with the GAL4 binding domain. Sequencing of selected cDNAs and constructs was performed at the Iowa State University DNA Facility. For deletion analysis, modified constructs of POTH1 were cloned into the pBridge vector for fusion with the DNA-binding domain of GAL4 (FIG. 10A). For StBEL-05, constructs were cloned into the pGAD vector for fusion with the activating domain of GAL4 (FIG. 10B). Deletion constructs were made from both the amino and carboxy termini. These mutants were then tested for interaction in the yeast two-hybrid system by cotransforming into yeast strain AH109 with the corresponding full-length partner (StBEL-05 in pGAL4 or POTH1 in pBridge). All constructs were sequenced to verify that they were in-frame. Positive interactions were verified for lacZ induction by using a β-galactosidase assay (Pierce Chemical Company). For POTH1, seven deletion constructs were tested (FIG. 10A). For the BEL TFs, a fusion construct of StBEL-05 (653 aa of StBEL-05 sequence) and nine deletion constructs were tested (FIG. 10B).

[2] = molecular target: T1, GAD protein alone (UniProt P04386 768-881, limits assumed); experiment: in vitro translated 35S-labelled proteins, immunoprecipitation with anti-GAD antibodies
T1 construct: Control of the immunoprecipitation
T1 sequence (looked up): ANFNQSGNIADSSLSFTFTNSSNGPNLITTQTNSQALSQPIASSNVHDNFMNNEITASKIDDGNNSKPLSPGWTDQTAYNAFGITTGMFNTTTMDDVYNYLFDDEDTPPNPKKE
Procedure: In vitro binding experiments were performed as described by Ni et al., "PIF3, a Phytochrome-Interacting Factor Necessary for Normal Photoinduced Signal Transduction, is a Novel Basic *Helix*-Loop-Helix Protein," *Cell* 95:657-667 (1998), which is hereby incorporated by reference in its entirety. The full-length sequence for POTH1 was cloned into a pET17b/GAD fusion cassette and transcribed under the control of the T7 promoter. The BEL cDNAs were cloned into pGEM11Z vectors and were transcribed under the control of the T7 promoter. ^35S-methionine labeled bait and prey proteins were synthesized using the TnT in vitro transcription-translation kit (Promega) according to the manufacturer's protocols. Each 50 μl TnT reaction contained 2.0 μg of template plasmid DNA and 20 μmol (20 μCi) of labeled ^35S-methionine. The POTH1:GAD/BEL complex was immunoprecipitated with anti-GAD antibodies (Santa Cruz Biotechnology, Calif.). The proteins from the pellet (one-half the fraction) and for the prey (one-fourth of the reaction volume) were resolved on a 10% SDS-PAGE gel and visualized by autoradiography.

Chain of POTH1 (as listed by the source): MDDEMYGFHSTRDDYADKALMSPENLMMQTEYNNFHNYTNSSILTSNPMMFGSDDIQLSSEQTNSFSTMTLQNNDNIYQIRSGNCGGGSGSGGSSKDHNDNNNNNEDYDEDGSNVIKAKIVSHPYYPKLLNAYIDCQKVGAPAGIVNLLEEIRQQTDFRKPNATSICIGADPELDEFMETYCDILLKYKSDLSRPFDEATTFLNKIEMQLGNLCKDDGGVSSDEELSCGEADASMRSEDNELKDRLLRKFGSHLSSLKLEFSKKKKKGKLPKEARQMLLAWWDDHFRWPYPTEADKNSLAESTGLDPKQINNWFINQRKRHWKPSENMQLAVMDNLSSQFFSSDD

B1: StBEL-05 protein from pGEM11Z (in vitro transcription/translation) (other)
chain: MYYQGTSDNTNIQADHQQRHNHGNSNNNNIQTLYLMNPNNYMQGYTTSDTQQQQQLLFLNSSPAASNALCHANIQHAPLQQQHFVGVPLPAVSLHDQINHHGLLQRMWNNQDQSQQVIVPSSTGVSATSCGGITTDLASQLAFQRPIPTPQHRQQQQQQGGLSLSLSPQLQQQISFNNNISSSSPRTNNVTIRGTLDGSSSNMVLGSKYLKAAQELLDEVVNIVGKSIKGDDQKKDNSMNKESMPLASDVNTNSSGGGESSSRQKNEVAVELTTAQRQELQMKKAKLLAMLEEVEQRYRQYHHQMQIIVLSFEQVAGIGSAKSYTQLALHAISKQFRCLKDAIAEQVKATSKSLGEEEGLGGKIEGSRLKFVDHHLRQQRALQQIGMMQPNAWRPQRGLPERAVSVLRAWLFEHFLHPYPKDSDKIMLAKQTGLTRSQVSNWFINARVRLWKPMVEEMYLEEVKNQEQNSTNTSGDNKNKETNISAPNEEKHPIITSSLLQDGITTTQAEISTSTISTSPTAGASLHHAHNFSFLGSFNMDNTTTTVDHIENNAKKQRNDMHKFSPSSILSSVDMEAKARESSNKGFTNPLMAAYAMGDFGRFDPHDQQMTANFHGNNGVSLTLGLPPSENLAMPVSQQNYLSNDLGSRSEMGSHYNRMGYENIDFQSGNKRFPTQLLPDFVTGNLGT
notes: 35S-methionine labelled prey; also called p11Z-5
interaction with POTH1 [1]: showed selective interaction | binding result [2]: no binding
